The labels stand for the following.
B1: HDV Ribozyme (parent)
chain: GGCCGGCAUGGUCCCAGCCUCCUCGCUGGCGCCGGCUGGGCAACAUUCCGAGGGGACCGUCCCCUCGGUAAUGGCGAAUGGGACCCA

Variants of B1 are the subject of this data set. Put plainly: self-cleavage, relative activity (ratio to wild type); higher = more cleavage; co-transcriptional.
Take C58U A71U: the self-cleavage came out at 1.16.
On to C57U A71U, for which the self-cleavage is 1.08.
The figure for C57U A71C is 0.923.
The figure for G59U G80A is 0.295; for G59U G80U it is 0.19; for C58G A83G it is 0.633.
As to C58G A83U, the self-cleavage turned out to be 0.776.
The figure for C58G A83C is 0.386; for C57U C63A it is 1.01.
The figure for G59A A70U is 0.941.
The figure for G59A A70G is 1.2; for C58U C75A it is 0.095; for C58U C75U it is 0.302.
With C58U U72A, the self-cleavage stood at 0.58.
In the case of C58U U72G it was 0.431; in that of C58U U72C, 0.415; in that of C58U G82C, 0.386.
C58U G82A: the self-cleavage came out at 0.906.
As for C58A A71C, the self-cleavage stood at 0.831.
The figure for C58A A71U is 1.05.
In the case of G59C U79A it was 0.987.
In the case of G59C U79G, the self-cleavage came to 0.712.
In the case of G59C U79C it was 0.431; in that of U60A C86G, 0.851; in that of C58G A87G, 0.874.
The figure for G59A A78G is 0.631.
For the variant G59A A78U, the self-cleavage is 0.346.
In the case of C58A U65C it was 1.19; in that of G59C A71C, 0.677; in that of G59C A71G, 0.831.
In the case of C58G C63G it was 0.91.
In the case of G59A C75A it was 0.163.
Consider G59A C75U, for which the self-cleavage amounted to 0.159.
For the variant G59A C75G, the self-cleavage came to 0.177.
The figure for C58A C85G is 0.957; for C58A C85A it is 0.877; for C57U C85A it is 0.698.
As to C57U C85U, the self-cleavage came to 1.11.
In the case of G59C U72G it was 0.675.
In the case of G59C U72A it was 0.773.
Take G59C U72C: the self-cleavage was 0.917.
The figure for G59C C62U is 1.12; for G59A U69C it is 0.846; for C57U A77C it is 0.415.
As for C58U U69G, the self-cleavage was 0.965.
In the case of G59C U69A it was 1.27.
In the case of G59C U69G it was 1.11.
In the case of C58A C62U it was 1.08; in that of C58A C62G, 1.19; in that of C58U G80U, 0.132.
As for U60A C63A, the self-cleavage amounted to 0.849.
In the case of U60A C63U it was 0.972; in that of U60A A71C, 0.73; in that of G59A G67A, 0.979.
As for C58A C64A, the self-cleavage was found to be 0.962.
The figure for C57U C84A is 0.748; for C57U C84U it is 0.856.
In the case of C58A C61A it was 1.23; in that of U60A U65G, 1.09.
In the case of U60A U65C it was 1.08; in that of C58A G59C, 0.904.
Consider C58A G59A, for which the self-cleavage amounted to 1.1.
In the case of G59U A78U it was 0.285; in that of G59U A78C, 0.113.
The figure for G59U U72C is 0.599; for G59U U72G it is 0.776.
The figure for C58G G81U is 0.26; for C58G G81C it is 0.364; for C58A C84G it is 0.764.
Take C58A C84A: the self-cleavage was 0.644.
In the case of C58A C84U it was 0.919; in that of G59U U79C, 0.563.
In the case of G59U U79G it was 0.692.
In the case of C58U G73A it was 0.7; in that of U60A G76A, 1.
Consider G59C G74C, for which the self-cleavage is 0.0678.
Consider G59C G74A, for which the self-cleavage was 0.635.
The figure for G59A G82C is 0.208; for G59A G82A it is 0.466.
In the case of G59C A78C it was 0.179.
The figure for G59C A78G is 0.778; for U60A C61U it is 1.15.
Take U60A C61A: the self-cleavage stood at 0.742.
As for G59U G68C, the self-cleavage came out at 0.973.
The figure for G59C C64G is 0.892; for G59C C64A it is 0.946.
For C58A U79A, the self-cleavage came out at 0.789.
Turning to C58U G81A, the self-cleavage was 0.584.
In the case of C58U G81U it was 0.289; in that of C58U G81C, 0.31.
In the case of U60A C75G it was 0.0978; in that of G59C U60G, 1.16; in that of C58A G76U, 1.05.
In the case of C58A G76C it was 1.1; in that of U60A G80U, 0.299; in that of C57U U65C, 0.895.
Regarding C57U A70G, the self-cleavage was found to be 0.967.
In the case of U60A G73C it was 0.532.
As to U60A G73A, the self-cleavage came to 0.751.
With C58A G80C, the self-cleavage came out at 0.0707.
The figure for C58G C85A is 1.05; for C57U G81C it is 0.0604; for C57U G81A it is 0.415.
In the case of C57U G59C it was 0.89.
In the case of C57U G59A, the self-cleavage amounted to 1.07.
For the variant C57U A78G, the self-cleavage came out at 0.639.
The figure for C57U A78U is 0.119; for U60A G81A it is 0.514.
In the case of G59A U65G it was 0.801.
The figure for G59A U65C is 1.14; for C58A C86G it is 0.909.
Regarding C58A C86A, the self-cleavage turned out to be 1.19.
In the case of C58G G73A it was 0.406; in that of G59U C84U, 0.865; in that of G59U C84G, 0.731.
Turning to C58A G73C, the self-cleavage stood at 0.68.
The figure for C58A G73U is 0.383; for C57U C62U it is 0.799.
As for C57U C62G, the self-cleavage amounted to 1.25.
In the case of G59C G81U it was 0.415.
The figure for C58G G82A is 0.277; for C58G G82C it is 0.302.
In the case of G59C A83G it was 0.917.
As to G59C C61A, the self-cleavage worked out at 0.969.
In the case of G59C C61G it was 0.927; in that of G59C C61U, 1.01.
In the case of G59A C63A it was 1.07.
The figure for C57U C58A is 1.13.
On to C57U A83G, for which the self-cleavage worked out at 0.808.
In the case of C57U G73A it was 0.891; in that of G59A U60G, 0.956.
In the case of G59A U60C it was 1.12; in that of G59A A71C, 0.743; in that of G59C C66G, 1.14.
The figure for U60A G68A is 0.917.
With U60A G68U, the self-cleavage came to 1.11.
Regarding C58A A77G, the self-cleavage is 1.09.
With C58A A77U, the self-cleavage was 0.78.
Turning to C58A A77C, the self-cleavage worked out at 0.482.
In the case of G59C A70U, the self-cleavage worked out at 1.03.
The figure for G59C A70C is 1.07; for G59A G74U it is 0.561.
The figure for G59U C62G is 0.748; for G59U C62U it is 1.07; for G59U C62A it is 0.831.
Take G59A G81C: the self-cleavage was found to be 0.228.
As to G59A G81U, the self-cleavage turned out to be 0.249.
On to G59C U65C, for which the self-cleavage is 1.01.
The figure for C58A A83C is 0.723; for C58A A83G it is 0.707; for G59U G76U it is 1.08.
The figure for C58A G74C is 0.324; for C58G U60A it is 1.06; for U60A C62U it is 1.08.
In the case of U60A C62A it was 0.886; in that of C58A G82A, 0.614.
With C57U G68U, the self-cleavage was 1.17.
The figure for C57U G68A is 1.02; for C57U G68C it is 0.85.
In the case of G59U U60A it was 1.21; in that of G59U A77C, 0.453.
In the case of G59U A77U it was 0.47; in that of G59C G68A, 0.906.
As to C58A A78G, the self-cleavage was 0.697.
The figure for C58A A78C is 0.108; for G59U C61U it is 0.997.
In the case of G59C G73C it was 0.575.

(Values after the RNAGym collection of RNA variant scans (doi:10.7554/elife.80360).)
